Results: patent US20230407373A1 (priority 2020, published 2023)

B1: TIA1 (protein, UniProt P31483 1-386, looked up)
Cytotoxic granule associated …: MEDEMPKTLYVGNLSRDVTEALILQLFSQIGPCKNCKMIMDTAGNDPYCFVEFHEHRHAAAALAAMNGRKIMGKEVKVNWATTPSSQKKDTSSSTVVSTQRSQDHFHVFVGDLSPEITTEDIKAAFAPFGRISDARVVKDMATGKSKGYGFVSFFNKWDAENAIQQMGGQWLGGRQIRTNWATRKPPAPKSTYESNTKQLSYDEVVNQSSPSNCTVYCGGVTSGLTEQLMRQTFSPFGQIMEIRVFPDKGYSFVRFNSHESAAHAIVSVNGTTIEGHVVKCYWGKETLDMINPVQQQNQIGYPQPYGQWGQWYGNAQQIGQYMPNGWQVPAYGMYGQAWNQQGFNQTQSSAPWMGPNYGVQPPQGQNGSMLPNQPSGYRVAGYETQ
B2: PCBP2 (protein, UniProt Q15366 1-365, looked up)
Poly(rC)-binding protein 2: MDTGVIEGGLNVTLTIRLLMHGKEVGSIIGKKGESVKKMREESGARINISEGNCPERIITLAGPTNAIFKAFAMIIDKLEEDISSSMTNSTAASRPPVTLRLVVPASQCGSLIGKGGCKIKEIRESTGAQVQVAGDMLPNSTERAITIAGIPQSIIECVKQICVVMLETLSQSPPKGVTIPYRPKPSSSPVIFAGGQDRYSTGSDSASFPHTTPSMCLNPDLEGPPLEAYTIQGQYAIPQPDLTKLHQLAMQQSHFPMTHGNTGFSGIESSSPEVKGYWGLDASAQTTSHELTIPNDLIGCIIGRQGAKINEIRQMSGAQIKIANPVEGSTDRQVTITGSAASISLAQYLINVRLSSETGGMGSS
B3: RBMS2 (protein, UniProt Q15434 1-407, looked up)
RNA-binding motif, …: MLLSVTSRPGISTFGYNRNNKKPYVSLAQQMAPPSPSNSTPNSSSGSNGNDQLSKTNLYIRGLQPGTTDQDLVKLCQPYGKIVSTKAILDKTTNKCKGYGFVDFDSPSAAQKAVTALKASGVQAQMAKQQEQDPTNLYISNLPLSMDEQELEGMLKPFGQVISTRILRDTSGTSRGVGFARMESTEKCEAIITHFNGKYIKTPPGVPAPSDPLLCKFADGGPKKRQNQGKFVQNGRAWPRNADMGVMALTYDPTTALQNGFYPAPYNITPNRMLAQSALSPYLSSPVSSYQRVTQTSPLQVPNPSWMHHHSYLMQPSGSVLTPGMDHPISLQPASMMGPLTQQLGHLSLSSTGTYMPTAAAMQGAYISQYTPVPSSSVSVEESSGQQNQVAVDAPSEHGVYSFQFNK
B4: ATXN2 (protein, UniProt Q99700 1-1313, looked up)
Ataxin-2: MRSAAAAPRSPAVATESRRFAAARWPGWRSLQRPARRSGRGGGGAAPGPYPSAAPPPPGPGPPPSRQSSPPSASDCFGSNGNGGGAFRPGSRRLLGLGGPPRPFVVLLLPLASPGAPPAAPTRASPLGARASPPRSGVSLARPAPGCPRPACEPVYGPLTMSLKPQQQQQQQQQQQQQQQQQQQQQQQPPPAAANVRKPGGSGLLASPAAAPSPSSSSVSSSSATAPSSVVAATSGGGRPGLGRGRNSNKGLPQSTISFDGIYANMRMVHILTSVVGSKCEVQVKNGGIYEGVFKTYSPKCDLVLDAAHEKSTESSSGPKREEIMESILFKCSDFVVVQFKDMDSSYAKRDAFTDSAISAKVNGEHKEKDLEPWDAGELTANEELEALENDVSNGWDPNDMFRYNEENYGVVSTYDSSLSSYTVPLERDNSEEFLKREARANQLAEEIESSAQYKARVALENDDRSEEEKYTAVQRNSSEREGHSINTRENKYIPPGQRNREVISWGSGRQNSPRMGQPGSGSMPSRSTSHTSDFNPNSGSDQRVVNGGVPWPSPCPSPSSRPPSRYQSGPNSLPPRAATPTRPPSRPPSRPSRPPSHPSAHGSPAPVSTMPKRMSSEGPPRMSPKAQRHPRNHRVSAGRGSISSGLEFVSHNPPSEAATPPVARTSPSGGTWSSVVSGVPRLSPKTHRPRSPRQNSIGNTPSGPVLASPQAGIIPTEAVAMPIPAASPTPASPASNRAVTPSSEAKDSRLQDQRQNSPAGNKENIKPNETSPSFSKAENKGISPVVSEHRKQIDDLKKFKNDFRLQPSSTSESMDQLLNKNREGEKSRDLIKDKIEPSAKDSFIENSSSNCTSGSSKPNSPSISPSILSNTEHKRGPEVTSQGVQTSSPACKQEKDDKEEKKDAAEQVRKSTLNPNAKEFNPRSFSQPKPSTTPTSPRPQAQPSPSMVGHQQPTPVYTQPVCFAPNMMYPVPVSPGVQPLYPIPMTPMPVNQAKTYRAVPNMPQQRQDQHHQSAMMHPASAAGPPIAATPPAYSTQYVAYSPQQFPNQPLVQHVPHYQSQHPHVYSPVIQGNARMMAPPTHAQPGLVSSSATQYGAHEQTHAMYACPKLPYNKETSPSFYFAISTGSLAQQYAHPNATLHPHTPHPQPSATPTGQQQSQHGGSHPAPSPVQHHQHQAAQALHLASPQQQSAIYHAGLAPTPPSMTPASNTQSPQNSFPAAQQTVFTIHPSHVQPAYTNPPHMAHVPQAHVQSGMVPSHPTAHAPMMLMTTQPPGGPQAALAQSALQPIPVSTTAHFPYMTHPSVQAHHQQQL
B5: SPATS2 (protein, UniProt Q86XZ4 1-545, looked up)
Spermatogenesis-associated …: MSRKQNQKDSSGFIFDLQSNTVLAQGGAFENMKEKINAVRAIVPNKSNNEIILVLQHFDNCVDKTVQAFMEGSASEVLKEWTVTGKKKNKKKKNKPKPAAEPSNGIPDSSKSVSIQEEQSAPSSEKGGMNGYHVNGAINDTESVDSLSEGLETLSIDARELEDPESAMLDTLDRTGSMLQNGVSDFETKSLTMHSIHNSQQPRNAAKSLSRPTTETQFSNMGMEDVPLATSKKLSSNIEKSVKDLQRCTVSLARYRVVVKEEMDASIKKMKQAFAELESCLMDREVALLAEMDKVKAEAMEILLSRQKKAELLKKMTHVAVQMSEQQLVELRADIKHFVSERKYDEDLGRVARFTCDVETLKKSIDSFGQVSHPKNSYSTRSRCSSVTSVSLSSPSDASAASSSTCASPPSLTSANKKNFAPGETPAAIANSSGQPYQPLREVLPGNRRGGQGYRPQGQKSNDPMNQGRHDSMGRYRNSSWYSSGSRYQSAPSQAPGNTIERGQTHSAGTNGTGVSMEPSPPTPSFKKGLPQRKPRTSQTEAVNS
B6: ZC3H7A: host protein, UniProt Q8IWRD (protein, UniProt Q8IWR0 1-971, looked up)
Zinc finger CCCH …: MSNVSEERRKRQQNIKEGLQFIQSPLSYPGTQEQYAVYLRALVRNLFNEGNDVYREHDWNNSISQYTEALNIADYAKSEEILIPKEIIEKLYINRIACYSNMGFHDKVLEDCNIVLSLNASNCKALYRKSKALSDLGRYKKAYDAVAKCSLAVPQDEHVIKLTQELAQKLGFKIRKAYVRAELSLKSVPGDGATKALNHSVEDIEPDLLTPRQEAVPVVSLPAPSFSHEVGSELASVPVMPLTSILPLQVEESALPSAVLANGGKMPFTMPEAFLDDGDMVLGDELDDLLDSAPETNETVMPSALVRGPLQTASVSPSMPFSASLLGTLPIGARYAPPPSFSEFYPPLTSSLEDFCSSLNSFSMSESKRDLSTSTSREGTPLNNSNSSLLLMNGPGSLFASENFLGISSQPRNDFGNFFGSAVTKPSSSVTPRHPLEGTHELRQACQICFVKSGPKLMDFTYHANIDHKCKKDILIGRIKNVEDKSWKKIRPRPTKTNYEGPYYICKDVAAEEECRYSGHCTFAYCQEEIDVWTLERKGAFSREAFFGGNGKINLTVFKLLQEHLGEFIFLCEKCFDHKPRMISKRNKDNSTACSHPVTKHEFEDNKCLVHILRETTVKYSKIRSFHGQCQLDLCRHEVRYGCLREDECFYAHSLVELKVWIMQNETGISHDAIAQESKRYWQNLEANVPGAQVLGNQIMPGFLNMKIKFVCAQCLRNGQVIEPDKNRKYCSAKARHSWTKDRRAMRVMSIERKKWMNIRPLPTKKQMPLQFDLCNHIASGKKCQYVGNCSFAHSPEEREVWTYMKENGIQDMEQFYELWLKSQKNEKSEDIASQSNKENGKQIHMPTDYAEVTVDFHCWMCGKNCNSEKQWQGHISSEKHKEKVFHTEDDQYCWQHRFPTGYFSICDRYMNGTCPEGNSCKFAHGNAELHEWEERRDALKMKLNKARKDHLIGPNDNDFGKYSFLFKDLN
B7: HNRNPA3 (protein, UniProt P51991 1-378, looked up)
Heterogeneous nuclear …: MEVKPPPGRPQPDSGRRRRRRGEEGHDPKEPEQLRKLFIGGLSFETTDDSLREHFEKWGTLTDCVVMRDPQTKRSRGFGFVTYSCVEEVDAAMCARPHKVDGRVVEPKRAVSREDSVKPGAHLTVKKIFVGGIKEDTEEYNLRDYFEKYGKIETIEVMEDRQSGKKRGFAFVTFDDHDTVDKIVVQKYHTINGHNCEVKKALSKQEMQSAGSQRGRGGGSGNFMGRGGNFGGGGGNFGRGGNFGGRGGYGGGGGGSRGSYGGGDGGYNGFGGDGGNYGGGPGYSSRGGYGGGGPGYGNQGGGYGGGGGYDGYNEGGNFGGGNYGGGGNYNDFGNYSGQQQSNYGPMKGGSFGGRSSGSPYGGGYGSGGGSGGYGSRRF

Assays:
[1] = tested on: HCoV-OC43 gRNA and sgRNA; format: binding; conditions: for target (unweighted spectral count, OC43 Probe II capture): type n_36_v, FDR<10%; for target (unweighted spectral count, OC43 Probe II capture) / target (unweighted spectral count): tested against no-probe control; for target (unweighted spectral count): OC43 Probe II, 24 hpi (type n_24_v), infected cells; for target (unweighted spectral count, OC43 Probe II) / background (unweighted spectral count, no-probe control): type n_48_v, 48 hpi; for target (unweighted spectral count, OC43 Probe II): OC43 Probe II capture on infected cells; for background (unweighted spectral count, no-probe control): no-probe control on infected cells
[2] = tested on: SARS-CoV-2 gRNA and sgRNAs; format: binding; conditions: for target (unweighted spectral count in RNP capture): Probe II capture, LC-MS/MS LFQ; for background (unweighted spectral count in control): no-probe control pull-down, used as background for Probe II

Row | Molecule | target (unweighted spectral count, OC43 Probe II capture) ([1]; 36 hpi) | target (unweighted spectral count in RNP capture) ([2]; […]) | background (unweighted spectral count in control) [2] | target (unweighted spectral count) [1] | target (unweighted spectral count, OC43 Probe II) [1] | background (unweighted spectral count, no-probe control) [1] | target (unweighted spectral count of the protein in the RNP capture experiment) ([2]; […], LC-MS/MS label-free quantification, probe pool not given) | back-ground (unweighted spectral count of the protein in the control experiment) ([2]; protein background of the control (e.g. no-probe) experiment, […]) | target (spectral count) ([1]; type s_36_m, HCoV-OC43-infected HCT-8 cells, 36 hpi, Probe II) | background (spectral count) ([1]; type s_36_m, uninfected-probe control, 36 hpi, Probe II)
1 | B1 | 6 | 11 | 1 | – | – | – | – | – | – | –
2 | B2 | – | – | 1 | 10 | – | – | – | – | – | –
3 | B3 | 4 | 14 | 1 | – | – | – | – | – | – | –
4 | B4 | 4 | 22 | 1 | – | 6 | 1 | – | – | – | –
5 | B5 | – | – | – | – | – | – | 5 | 1 | – | –
6 | B6 | 9 | 14 | 1 | 8 | 9 | 1 | – | – | 9 | 1
7 | B7 | 25 | 51 | 1 | 22 | – | – | – | – | – | –
